Laboratory results published in patent publication US20240059789A1 (Janssen / Centocor, published 2024).

Experiments:
[1] = target: T1, Human PSMA on prostate cancer cell lines (C4-2B, 22RV1) (human, UniProt Q04609 1-750); experiment: cell-based or functional assay
[2] = target: T1, Human PSMA on prostate cancer cell …; experiment: cell-based or functional assay; remark: listed apart in the source

T1 sequence (Q04609 whole entry): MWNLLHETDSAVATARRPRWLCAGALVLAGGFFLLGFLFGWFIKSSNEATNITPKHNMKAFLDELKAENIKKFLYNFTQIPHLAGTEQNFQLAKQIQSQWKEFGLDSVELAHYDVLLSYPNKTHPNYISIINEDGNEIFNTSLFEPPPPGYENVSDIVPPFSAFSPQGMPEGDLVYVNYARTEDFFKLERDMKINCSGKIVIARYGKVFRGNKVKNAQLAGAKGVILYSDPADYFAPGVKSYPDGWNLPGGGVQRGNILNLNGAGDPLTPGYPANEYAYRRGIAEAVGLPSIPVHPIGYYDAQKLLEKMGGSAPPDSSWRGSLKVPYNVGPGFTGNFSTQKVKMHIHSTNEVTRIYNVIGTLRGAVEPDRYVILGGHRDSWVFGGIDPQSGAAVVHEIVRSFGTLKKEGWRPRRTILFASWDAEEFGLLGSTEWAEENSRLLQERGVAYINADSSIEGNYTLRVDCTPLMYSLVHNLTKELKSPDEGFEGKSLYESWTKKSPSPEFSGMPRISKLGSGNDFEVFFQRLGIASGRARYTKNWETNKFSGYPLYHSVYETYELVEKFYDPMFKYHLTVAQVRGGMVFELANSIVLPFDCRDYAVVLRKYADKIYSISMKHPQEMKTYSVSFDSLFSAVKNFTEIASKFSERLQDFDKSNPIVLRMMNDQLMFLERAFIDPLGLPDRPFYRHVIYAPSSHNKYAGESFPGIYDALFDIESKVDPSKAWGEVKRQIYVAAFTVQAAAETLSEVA

Row | Binder | Cytotoxicity (C4-2B cells, 3:1 E:T ratio, 5 Day) at 0.3 nM [1] | Cytotoxicity (C4-2B cells, 3:1 E:T ratio, 5 Day) at 1.1 nM [1] | Cytotoxicity (C4-2B cells, 3:1 E:T ratio, 5 Day) at 3.3 nM [1] | Cytotoxicity (C4-2B cells, 3:1 E:T ratio, 5 Day) at 10 nM [1] | Cytotoxicity (C4-2B cells, 3:1 E:T ratio, 5 Day) at 30 nM [1] | % cytolysis at 120 hours (C4-2B, xCelligence, donor #1) at 80 pM [2] | % cytolysis at 120 hours (C4-2B, xCelligence, donor #1) at 0.4 nM [2] | % cytolysis at 120 hours (C4-2B, xCelligence, donor #1) at 2 nM [2] | % cytolysis at 120 hours (C4-2B, xCelligence, donor #1) at 10 nM [2] | % cytolysis at 120 hours (C4-2B, xCelligence, donor #1) at 50 nM [2] | % cytolysis at 120 hours (C4-2B, xCelligence, donor #2) at 80 pM [2] | % cytolysis at 120 hours (C4-2B, xCelligence, donor #2) at 0.4 nM [2] | % cytolysis at 120 hours (C4-2B, xCelligence, donor #2) at 2 nM [2] | % cytolysis at 120 hours (C4-2B, xCelligence, donor #2) at 10 nM [2] | % cytolysis at 120 hours (C4-2B, xCelligence, donor #2) at 50 nM [2] | % cytolysis at 120 hours (C4-2B, xCelligence, donor #3) at 80 pM [2] | % cytolysis at 120 hours (C4-2B, xCelligence, donor #3) at 0.4 nM [2] | % cytolysis at 120 hours (C4-2B, xCelligence, donor #3) at 2 nM [2] | % cytolysis at 120 hours (C4-2B, xCelligence, donor #3) at 10 nM [2] | % cytolysis at 120 hours (C4-2B, xCelligence, donor #3) at 50 nM [2]
1 | PS3B1357 (bispecific antibody, human IgG1, lambda, L234A L235A) heavy 1: QVQLQQSGPGLVKPSQTLSLTCAISGDSVFNNNAAWSWIRQSPSRGLEWLGRTYYRSKWLYDYAVSVKSRITINPDTSKNQFSLQLNSVTPEDTAVYYCARGYSSSFDYWGQGTLVTVSSASTKGPSVFPLAPSSKSTSGGTAALGCLVKDYFPEPVTVSWNSGALTSGVHTFPAVLQSSGLYSLSSVVTVPSSSLGTQTYICNVNHKPSNTKVDKKVEPKSCDKTHTCPPCPAPEAAGGPSVFLFPPKPKDTLMISRTPEVTCVVVSVSHEDPEVKFNWYVDGVEVHNAKTKPREEQYNSTYRVVSVLTVLHQDWLNGKEYKCKVSNKALPAPIEKTISKAKGQPREPQVYTLPPSREEMTKNQVSLTCLVKGFYPSDIAVEWESNGQPENNYKTTPPVLDSDGSFLLYSKLTVDKSRWQQGNVFSCSVMHEALHNHYTQKSLSLSPGK light 1: QSALTQPASVSGSPGQSITISCTGTSSNIGTYKFVSWYQQHPGKAPKVMIYEVSKRPSGVSNRFSGSKSGNTASLTISGLQAEDEADYYCVSYAGSGTLLFGGGTKLTVLGQPKAAPSVTLFPPSSEELQANKATLVCLISDFYPGAVTVAWKADSSPVKAGVETTTPSKQSNNKYAASSYLSLTPEQWKSHRSYSCQVTHEGSTVEKTVAPTECS heavy 2: EVQLVESGGGLVQPGGSLRLSCAASGFTFSSYAMSWVRQAPGKGLEWVSAISGGIGSTYYADSVKGRFTISRDNSKNTLWLQMNSLRAEDTAVYYCAKDGVGATPYYFDYWGQGTLVTVSSASTKGPSVFPLAPSSKSTSGGTAALGCLVKDYFPEPVTVSWNSGALTSGVHTFPAVLQSSGLYSLSSVVTVPSSSLGTQTYICNVNHKPSNTKVDKKVEPKSCDKTHTCPPCPAPEAAGGPSVFLFPPKPKDTLMISRTPEVTCVVVSVSHEDPEVKFNWYVDGVEVHNAKTKPREEQYNSTYRVVSVLTVLHQDWLNGKEYKCKVSNKALPAPIEKTISKAKGQPREPQVYTLPPSREEMTKNQVSLTCLVKGFYPSDIAVEWESNGQPENNYKTTPPVLDSDGSFFLYSRLTVDKSRWQQGNVFSCSVMHEALHNHYTQKSLSLSPGK light 2: QSVLTQPPSVSAAPGQKVTISCSGSSSNIGINYVSWYQQLPGTAPKLLIYDNNKRPSGIPDRFSGSKSGTSATLGITGLQTGDEADYYCGTWDSSLSAVVFGGGTKLTVLGQPKAAPSVTLFPPSSEELQANKATLVCLISDFYPGAVTVAWKADSSPVKAGVETTTPSKQSNNKYAASSYLSLTPEQWKSHRSYSCQVTHEGSTVEKTVAPTECS | 96% | 96% | 95% | 96% | 91% | 100% | 100% | 100% | 100% | 100% | 100% | 100% | 100% | 100% | 100% | 100% | 100% | 100% | 100% | 100%
2 | PS3B1352 (bispecific antibody, human IgG1, lambda, L234A L235A) heavy 1: QVQLQQSGPRLVRPSQTLSLTCAISGDSVFNNNAAWSWIRQSPSRGLEWLGRTYYRSKWLYDYAVSVKSRITVNPDTSRNQFTLQLNSVTPEDTALYYCARGYSSSFDYWGQGTLVTVSSASTKGPSVFPLAPSSKSTSGGTAALGCLVKDYFPEPVTVSWNSGALTSGVHTFPAVLQSSGLYSLSSVVTVPSSSLGTQTYICNVNHKPSNTKVDKKVEPKSCDKTHTCPPCPAPEAAGGPSVFLFPPKPKDTLMISRTPEVTCVVVSVSHEDPEVKFNWYVDGVEVHNAKTKPREEQYNSTYRVVSVLTVLHQDWLNGKEYKCKVSNKALPAPIEKTISKAKGQPREPQVYTLPPSREEMTKNQVSLTCLVKGFYPSDIAVEWESNGQPENNYKTTPPVLDSDGSFLLYSKLTVDKSRWQQGNVFSCSVMHEALHNHYTQKSLSLSPGK light 1: QSALTQPASVSGSPGQSITISCTGTSSNIGTYKFVSWYQQHPDKAPKVLLYEVSKRPSGVSSRFSGSKSGNTASLTISGLQAEDQADYHCVSYAGSGTLLFGGGTKLTVLGQPKAAPSVTLFPPSSEELQANKATLVCLISDFYPGAVTVAWKADSSPVKAGVETTTPSKQSNNKYAASSYLSLTPEQWKSHRSYSCQVTHEGSTVEKTVAPTECS heavy 2: EVQLVESGGGLVQPGGSLRLSCAASGFTFSSYAMSWVRQAPGKGLEWVSAISGGIGSTYYADSVKGRFTISRDNSKNTLWLQMNSLRAEDTAVYYCAKDGVGATPYYFDYWGQGTLVTVSSASTKGPSVFPLAPSSKSTSGGTAALGCLVKDYFPEPVTVSWNSGALTSGVHTFPAVLQSSGLYSLSSVVTVPSSSLGTQTYICNVNHKPSNTKVDKKVEPKSCDKTHTCPPCPAPEAAGGPSVFLFPPKPKDTLMISRTPEVTCVVVSVSHEDPEVKFNWYVDGVEVHNAKTKPREEQYNSTYRVVSVLTVLHQDWLNGKEYKCKVSNKALPAPIEKTISKAKGQPREPQVYTLPPSREEMTKNQVSLTCLVKGFYPSDIAVEWESNGQPENNYKTTPPVLDSDGSFFLYSRLTVDKSRWQQGNVFSCSVMHEALHNHYTQKSLSLSPGK light 2: QSVLTQPPSVSAAPGQKVTISCSGSSSNIGNNYVSWYQQLPGTAPKLLIYDNNKRPSGIPDRFSGSKSGTSATLGITGLQTGDEADYYCGTWDSSLSAYVFGTGTKVTVLGQPKAAPSVTLFPPSSEELQANKATLVCLISDFYPGAVTVAWKADSSPVKAGVETTTPSKQSNNKYAASSYLSLTPEQWKSHRSYSCQVTHEGSTVEKTVAPTECS | 65% | 88% | 89% | 85% | 79% | 77% | 100% | 100% | 100% | 100% | 0% | 100% | 100% | 100% | 100% | 9% | 100% | 100% | 100% | 100%
3 | PS3B1353 (bispecific antibody, human IgG1, lambda, L234A L235A) heavy 1: QVQLQQSGPRLVRPSQTLSLTCAISGDSVFNNNAAWSWIRQSPSRGLEWLGRTYYRSKWLYDYAVSVKSRITVNPDTSRNQFTLQLNSVTPEDTALYYCARGYSSSFDYWGQGTLVTVSSASTKGPSVFPLAPSSKSTSGGTAALGCLVKDYFPEPVTVSWNSGALTSGVHTFPAVLQSSGLYSLSSVVTVPSSSLGTQTYICNVNHKPSNTKVDKKVEPKSCDKTHTCPPCPAPEAAGGPSVFLFPPKPKDTLMISRTPEVTCVVVSVSHEDPEVKFNWYVDGVEVHNAKTKPREEQYNSTYRVVSVLTVLHQDWLNGKEYKCKVSNKALPAPIEKTISKAKGQPREPQVYTLPPSREEMTKNQVSLTCLVKGFYPSDIAVEWESNGQPENNYKTTPPVLDSDGSFLLYSKLTVDKSRWQQGNVFSCSVMHEALHNHYTQKSLSLSPGK light 1: QSALTQPASVSGSPGQSITISCTGTSSNIGTYKFVSWYQQHPDKAPKVLLYEVSKRPSGVSSRFSGSKSGNTASLTISGLQAEDQADYHCVSYAGSGTLLFGGGTKLTVLGQPKAAPSVTLFPPSSEELQANKATLVCLISDFYPGAVTVAWKADSSPVKAGVETTTPSKQSNNKYAASSYLSLTPEQWKSHRSYSCQVTHEGSTVEKTVAPTECS heavy 2: EVQLVESGGGLVQPGGSLRLSCAASGFTFSSYAMSWVRQAPGKGLEWVSAISGGIGSTYYADSVKGRFTISRDNSKNTLWLQMNSLRAEDTAVYYCAKDGVGATPYYFDYWGQGTLVTVSSASTKGPSVFPLAPSSKSTSGGTAALGCLVKDYFPEPVTVSWNSGALTSGVHTFPAVLQSSGLYSLSSVVTVPSSSLGTQTYICNVNHKPSNTKVDKKVEPKSCDKTHTCPPCPAPEAAGGPSVFLFPPKPKDTLMISRTPEVTCVVVSVSHEDPEVKFNWYVDGVEVHNAKTKPREEQYNSTYRVVSVLTVLHQDWLNGKEYKCKVSNKALPAPIEKTISKAKGQPREPQVYTLPPSREEMTKNQVSLTCLVKGFYPSDIAVEWESNGQPENNYKTTPPVLDSDGSFFLYSRLTVDKSRWQQGNVFSCSVMHEALHNHYTQKSLSLSPGK light 2: QSVLTQPPSVSAAPGQKVTISCSGSSSNIGINYVSWYQQLPGTAPKLLIYDNNKRPSGIPDRFSGSKSGTSATLGITGLQTGDEADYYCGTWDSSLSAVVFGGGTKLTVLGQPKAAPSVTLFPPSSEELQANKATLVCLISDFYPGAVTVAWKADSSPVKAGVETTTPSKQSNNKYAASSYLSLTPEQWKSHRSYSCQVTHEGSTVEKTVAPTECS | 98% | 98% | 97% | 95% | 92% | 100% | 100% | 100% | 100% | 100% | 100% | 100% | 100% | 100% | 100% | 100% | 100% | 100% | 100% | 100%
